Measurements as given in the DeepSol protein solubility set.

Assay: soluble on expression in E. coli; label from the status in PepcDB or PDB records
For “MLLKRRLFIAASLFAMHLSPALAADAVSFAPQPPAIDAGAWVLMDYTTGQVLTAGNEHQQRNPASLTKLMTGYVVDRAIDSHRISPDDIVTVGRDAWAKDNPVFVGSSLMFLKEGDRVSVRDLSRGLIVDSGNDACVALADYIAGGQPQFVAMMNSYVKKLNLQDTHFETVHGLDAPGQHSSAYDLAVLSRAIIHGEPEFYHMYSEKSLTWNGITQQNRNGLLWDKTMHIDGLKTGHTSGAGFNLIASAVDGQRRLIAVVMGAKSSKGREEQARKLLQWGQQNFATVQILHSGKKVGSERIWYGDKEKIALGTEQDFWMALPKAEIPHIKAKYVLDRKELEAPIAAHQQVGEIELYDRDKLIAQWPLVTLESVGKGGMFSRLSDYFQHKA”, the “soluble on expression in E. coli” value was “not soluble”.
For “MNYEIVCGIETHIELATKTKIFCGCTTEFGGEPNTHCCPVCTGQPGSLPILNQKVVEYAIKAGLALNCKINTKSHMDRKNYVYPDLPKAYQISQYDEPLCEKGYIELDSGKRIGITRIHIEEDAGKLVHENGYTYIDYNRSGVPLIEIVSEPDISSAEEAREYAEKLQLIMRYIGISDCKMQEGSMRCDVNLSLRKPGDSRFGVRTEIKNINSLSFIQKAVMAEAERQADILDAGGTVVQQTMRYDEATNSVSPMRDKENSDDYRYFPDPDILRFSINDEKVEEIRASLPELPFDKLKRYVNVLGLPEATARQIFRYRKVAEFFEGALAEGASVKNAANLIVGTIFSNMDTEEEKELFDIRISSAQFAALVKLADEKKINIGVAQSTLQKMLESGKPVEEFIKPEDLAGISDEELESLCKEAIDANPKAVADVRSGKDKAINVMFGYIMKKTGGKADIRKVEVLLRKLIGQ”, the “soluble on expression in E. coli” value was “soluble”.
In the case of “MKIALIGATGHVGHYFLNEALQRGHAVTALVRDPSKLAARDGLCVVQADVSDPAQVASAVAGHEVVISAFNGGWGSADLRARHAAGSQAILDGVKRSGVPRLLVLGGAGSLEIAPGQRLVDSPEFPEQWKQGALGAADALDQLRGEQRLDWVFLSPAMLLEPGQRSGKFRLGGDQVLFDAKGESRISLEDLAVAMLDEAEQPRHHRQRFTVAYLEHHHHHH”, the “soluble on expression in E. coli” value is reported as “soluble”.
For “MDSFLMKGYIKEANIDYSCSRGSMEDLPKWEFREIPKVPRAVMPSLSLEERKNNFNEVELGLSEEVARKEARRCLKCGCSARFTCDLRKEASNHGIVYEEPIHDRPYIPKVDDHPFIVRDHNKCISCGRCIAACAEIEGPGVLTFYMKNGRQLVGTKSGLPLRDTDCVSCGQCVTACPCAALDYRRERGKVVRAINDPKKTVVGFVAPAVRSLISNTFGVSYEEASPFMAGLLKKLGFDKVFDFTFAADLTIVEETTEFLSRIQNKGVMPQFTSCCPGWINFVEKRYPEIIPHLSTCKSPQMMMGATVKNHYAKLMGINKEDLFVVSIVPCLAKKYEAARPEFIHDGIRDVDAVLTTTEMLEMMELADIKPSEVVPQEFDEPYKQVSGAGILFGASGGVAEAALRMAVEKLTGKVLTDHLEFEEIRGFEGVKESTIDVNGTKVRVAVVSGLKNAEPIIEKILNGVDVGYDLIEVMACPGGCICGAGHPVPEKIDSLEKRQQVLVNIDKVSKYRKSQENPDILRLYNEFYGEPNSPLAHELLHTHYTPKHGDSTCSPERKKGTAAFDVQEFTICMCESCMEKGAENLYNDLSSKIRLFKMDPFVQIKRIRLKETHPGKGVYIALNGKQIEEPMLSGNIPDESESE”, the “soluble on expression in E. coli” value was “soluble”.
With “MKLTGQAIDGFLRKPDPKIRCVLVYGPDEGLVRERLEQLARTVVADPKDPFRITDLSGDDLRADPARLADEAAALAFGGGRRLVRLRQMTDQHAPRLKAFVEAPVGEALVLVQGGDLTARSALRKLFEGASAAAALPCYADEGRSLETLVRATLAEARLAAAPEVIDYLVANLGGDRGVSRSELAKLVTYCGKATSVSLDDALACVGDSAQIGLDMLTNAVAEGDSATALRALDRLGQEGMATVALLRGLTRHFTRLHLVAGLIAGGTSVDQALAALKPPVMFKLAPRFRSQVQRWSAERLAQALDLLLDAEIDAKSSGLPERALVERLLLRLARGAKTASRLEHHHHHH” the “soluble on expression in E. coli” value was “not soluble”.
With “MNPLLFNDRTLKGSGVLARVTPTGTQYVASVVAAAFSSHFADIKPPKERKDHQLTTISTVTLRRLMLETLQLDKQLVTTTTSDGLLRITVQNISVSSSAVLSGELREIKLQDNVTFRTANLRIDTAIRIMKNAGGNPALKMESCKIVTQGIKLVTKPMDPRNGKSLADAIANDANTMFSDLICSKIDHIVSNRVNQRFALLSSRISLEDSKNFDIVKIIMQAEERLKRLVRQNMLRSNKTIRRNVHAHNARRVSRDPVRGKRQADEDKFHLILNSFNFSRADSLMLDYSMLSPPSLTSRGIELQTSGEVFQKGHVTPFGAGPIFLPRIPNPSQMLQIVVSDFVPNSLMFHGHRIKLFDTRIDWMTPQFGPVMRTTCDLSTGSLFCIGDLFPALREMLPDRNVAFLFTTLRAPAVIMQPEEKGGIHFSLRGLIRLVSDRNEPIGEMEIRIEALMKMKLTSKSVKGKVTIEEIQFTSRSPRILLQEELDDAGFLSREILQRMVNDILRQGIPIPIHPLFKLVKPKLTLLSRSMLLETNFLLNEHIIAQLTAEALVA” the “soluble on expression in E. coli” value was “not soluble”.
With “NHVRRVQELSKFFAEEMGLDEDLVHKIYLYAPLHDIGKIKVPKEILNKKGKLTAEEWEIMKKHTIWGGELLSGRKELEVARNIALYHHESYDGTGYPFGLKDDEIPIEAQIVKIVDVYDAL” the “soluble on expression in E. coli” value was “not soluble”.
In the case of “MSTPIIPWMGGKRRLADRLIPLFPPHECYVEVFAGGAALYFMRPQAAPVEVLNDINGDLVNLYRVVQNHLEEFVRQFKWALSSRQVFEWQKMTRPETLTDIQRAARFFYLQHHAFAGKVSGQTFGTATTGPAINLLRIEENLSAAWQRLSGTYVENLPWLECAERYDRPQTFHYMDPPYWQTAGYGVDYPFENYERMADFMRTCKGKVMVSINDHPDIRRVFEEFHFETVDIRYTSSNQRRGRTDVVGELVIMNWEP”, the “soluble on expression in E. coli” value is reported as “not soluble”.
For “MAHHHHHHMLVSERAQPVRLFNCLLLRAHKDDESDGAACALHKNAASTSPTTDPIAAATAVGATRLYFTEGGPSSSLTALQRYLKVEEAHTTCPLLRVLQLAPQAPTGNMQPLVYVELDTPNAVSLSDDAQGRREAVLTTCSGVCTQETMPSRWYHAPVKATLCVFQEFMRAPTTSAASEPAFWAFLESVVRYHARDFYCGAVQVELQCVFVPTFEEKQNTAYSVDVFGDYVNEKEGQAQQSSPAAGKGRTAMKICVKSTEAFEHVMAYLKTQCPLLEADFRSSHLVVYAKWSSQLSAVRDSSHSQPPAADATGAVEQAACFVWLQDDAGGGGRDGVYADAALEALLDELTLAAASISTPSRAAAVLQEEGVSSFFEACCLTHTLKRVIRKHFQAVVLRQRPLFHWVISLPPYARLSRSTTSAAVTAMRFRDNAAVSRAVWGATQMLVHWQQLSNSAHALANEALKQSFGRGSGPSRQIVSAPARVPRQRRAIQQSALYGDTFSGGSALDRQRGKVNVPHLYGADEGHDASISLSSAQRGSVMAASGLFHNLRSIKEDSFNNTSVLDAEDVFGSNPKLTTRVVKRLAQSRTSVHTAQ”, the “soluble on expression in E. coli” value was “not soluble”.
For “SAVAIPQATSLTNLVFLTKLIPRGSFTTILPKHHRKPIFVFSLQTQFSSPVTTLTSKNPKDDEQQQKLSFTLNYLIDSCGLSPDSATVASRKLLLDSPERPNTVLNLLRDHGFTTAQISSLVKKRPVLLLANAESVLLPKLSFFLSIGVSKSLLARTLASDPTILTRSLVNQLIPSYNFLKSVLDSDEKIVAALRRTTWVFLEDHTKNLVPNINYMAETGVPEKCIKLLLTHFPEAVMQKNHEFQAIAKQAQEMGFNPQKSTFVLAIHALSGKGNKSIWDKCFEVYQRWGWSEDDIMCAFKKHPHCMMLSERKINRTMEYFVNEMNMAPRSIAQCPVVLFFSLEKRIIPRCSVTKVLVSNGLVKEDWSLTSLLVPVEKVFLEKLVIKYEEELPELMNLYLGCTKL”, the “soluble on expression in E. coli” value was “soluble”.
For “MPTPARKTQKGGRKRRVNGVEEEILYIIGFFQDDSSIGLSTFFTKFCILYQDSKSNFRVLNLEMFSPENLNARKKMSQEKDTPSH”, the “soluble on expression in E. coli” value was “not soluble”.
In the case of “MGSDKIHHHHHHMIHVAHHYEMRHPTADIQETSMSSAQEERLRFIDFRLMFLGDVSRQDLTDRFGISEPAATRDLTQYRERCAANMEYSHVQRAYLRNYNFAPLYDHESTEALAMIAHGHLALPRRERKPLLRCDLPIQLDSPDSMVVSTITRAINHQHVISIDYRSHSSGETRRQIVPFALVDNGLRWHIRAYDRRRLRFSDFVISRISNPTIEESVVLTHERWEHDIQWNRIVELELVPHPKRPHPETTLFEYGMVNGISRLRVRAAVAGYFLRRWNVDCSPDHCLEGNEYQLWLKNRETLYGVETLEIAPGYL”, the “soluble on expression in E. coli” value is reported as “not soluble”.
In the case of “MGSDKIHHHHHHMSNTDKYYRDRSHITGKLDLQKLPKAIREKQYGIDVREAMAQTAEAIAGVQSTAQKFNQDTKNQVNQLDEKYTREIRAIVLGDTTSVATPPIQEPNSEASNPLSNLYETARGQVLYDFVKQSSLTKVSKIGVIGDSVAATAGGFPDILAHQYNIYVENLSVGGAKMSDYNHDAIVNQASRLQQCDVVIIQGTDDDWVHDISLGYAGDTNIKTYLGGLRETIKRVKNNNPKAKLIVVNCTRQCVDVHGKYRTEQSKNTFGLTLIDYMEAQKKYLNQQDVPYVDLMKPTSIFEPDNPAFKKTMMHDGLHPTPEAHQYIVQEIAKDYSYYYDK”, the “soluble on expression in E. coli” value is reported as “not soluble”.
With “MSLAFNYDEYLRVDKMPTQWCWGCGDGVVLKCIIRAIEKLGWNMDDVCLVSGIGCSGRMSSYVNCNTVHTTHGRAIAYATGIKLANPSKHVIVVSGDGDTLAIGGNHTIHGCRRNIDLTHIVINNFIYGLTNSQTSPTTPKGFYTVTAQFGNIDPNFDACELTKAAGASFVARGNVIEANKLENLIYKALAHKGYSFVDVFSNCHINLGRKNKMGEAVAMLDWIKNRVVDKAKFESMDFEERKDKFPTGILHEDNSQPEYCHAYEEVRRAAKEKRMVDLGALKEGHHHHHH” the “soluble on expression in E. coli” value was “not soluble”.
With “MSLTEKTKEVRLDFFEALGMVTALMMDCDYKHWFVADISRNIIPALQAGQCKVYFDEEGRPNAFVTWALVDNDDHEALLREGCNPPPGKWASGNHLWFIDIVAPVGNILPRIKRDLHQNYFADHNKAYAIRSKADGAIRRVQVWKNPLVTRPTRSFRIGADIETHDDEGHHHHHH” the “soluble on expression in E. coli” value was “soluble”.
In the case of “YTVEPVQDGERSVTLRRAGGTPLVAAMYHLPAAGSPDFVGLDLAATILADTPSGRLYHALVPTKLASGVFGFTMDQLDPGLAMFGAQLQPGMDQDKALQTLTATLESLSSKPFSQEELERARSKWLTAWQQTYADPEKVGVALSEAIASGDWRLFFLQRDRVRDAKLDDVQRAAVAYLVRSNRTEGRYIPTEKPQRAPLAQR”, the “soluble on expression in E. coli” value is reported as “not soluble”.
In the case of “MRTMIYKILTGCYIVAALVLVAACNDGLDIQTKYPFTVETMPVPKELKVNETAEIRCELKREGRWEDTRYTIRWFLFDGEGTLKLDDGTVLLPNDRYPLEKETFRLYYTPLSDEQSGFTVWVEDSDGQAVELEFDFNADNDKEDGYGTELEHHHHHH”, the “soluble on expression in E. coli” value is reported as “soluble”.
In the case of “GQRELTLFVHGFNSTQTETAYRAAQLAHDIEMPGSLMVYSWPSKGHALGYAYDADSTVFARDGLETVLRRLGEQRIDRLAVVAHSMGSFLLMEALRQIEIATPGWSARHLDGVILISPDLDLDVFRSQMRRIKTVPQPFVVMASEKDNVLNLSRHLRGKQSSERLGQIGSAALITDLPVAVIDTSQFSDEAESGHFIAATSPTLLAMIAEARNMTDLFEAGNVPL”, the “soluble on expression in E. coli” value is reported as “not soluble”.
In the case of “MGSDKIHHHHHHMRVGIIGGGFGLAVQAPIINTHPKMNVSAISTMIRHQVPKNLSTADDSPVHYTDWTKMLDLEELDLVFVSSLPIYHFEMVKYALNKGIHVVCEKPFTMNSVESEELLRLSSDTNTKVFIDFEWRYHPARQKVKELISEVGDILHFEYHISASQYQKLQTNKRGWMGEKQKFGGMLGALGTHMVDCLRWLIQDEIITINGFIHTHVPEGPEELRDSDDAFFIHGKIEGNCTFSIQLISGIHHGFGSNLKVFGSLGTINLIDDKTLFFGKASESLEEIKIETYTQTIPPLSSEAKAYYPAFYPFLDKVYENIIFNKSDKDLPTIVDGHENQIIIDNVLSN”, the “soluble on expression in E. coli” value is reported as “not soluble”.
